This passage reports switch fluorescence ratio results from the supplement of paper PMC10126150.

The data set has as its system ATP. Put plainly: switch fluorescence ratio, 500 uM ATP over buffer (Cy3 cluster intensity, sum of 5 cycles each) (fold (ratio)); higher = stronger signal-on switching upon ATP binding; sequences stand for … in TCGTCGGCAGCGTCAGATGTGTATAAGAGACAGTTTTTTTTTTTTTTTTTTTTTTTTT…TC. The settings on record: aptamer strand: ATP DNA aptamer (quencher-CACCTGGGGGAGTATTGCGGAGGAAGG + anchor), 100 nM annealed; ATP concentration: 500 uM. In short, it runs like this:
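The fluorescence ratio divides summed target-cycle Cy3 intensity by summed buffer-cycle Cy3 intensity for each cluster and is averaged per switch-domain sequence. Cy3-labelled switching-strand clusters on a modified Illumina MiSeq flow-cell were annealed to 100 nM quencher-labelled ATP aptamer, then imaged in selection buffer and again after 15 min with 500 uM ATP at 22 °C. Five such cycles were run, with NaOH stripping and re-annealing between them, and clusters outside 100-1000 RFU were excluded.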

± gives the standard deviation of the averaged measurements.
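Also: ATP exposure 15 min at 22 °C before imaging.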

As for GTTGTCGTGT, the switch fluorescence ratio came to 1.01 ± 0.049. Consider GTTGTGCTTT, for which the switch fluorescence ratio is 0.984 ± 0.011. The figure for GTTGTGGATA is 0.97 ± 0.029. Regarding GTTGTGGCGT, the switch fluorescence ratio was determined as 0.9853 ± 0.0069. The figure for GTTGTGGGTA is 0.975 ± 0.034; for GTTGTGGGTT it is 0.976 ± 0.022. The figure for GTTGTTACGG is 1.01 ± 0.037. To GTTGTTAGAG belongs 0.989 ± 0.021; to GTTGTTAGGT, 0.97 ± 0.022. GTTGTTGTGA: the switch fluorescence ratio stood at 0.976 ± 0.02. As to GTTGTTGTGG, the switch fluorescence ratio came out at 1.02 ± 0.034. To GTTGTTTACC belongs 1.02 ± 0.021. To GTTTAAAAAG belongs 0.9958 ± 0.0034; to GTTTAAAGGT, 0.996 ± 0.024; to GTTTAACCGG, 1.01 ± 0.035.

For GTTTAAGGAC, the switch fluorescence ratio was 0.991 ± 0.038. The figure for GTTTACAGGC is 0.9875 ± 0.0092; for GTTTACGCAC it is 1.75 ± 0.03. The figure for GTTTACTCGT is 1.02 ± 0.012.

GTTTACTTTT: the switch fluorescence ratio worked out at 0.986 ± 0.013.

In the case of GTTTAGGATT, the switch fluorescence ratio is 1.21 ± 0.33.

In the case of GTTTAGGGGC, the switch fluorescence ratio was determined as 0.992 ± 0.023. On to GTTTAGTAAG, for which the switch fluorescence ratio came out at 1 ± 0.013. GTTTATACCG: the switch fluorescence ratio was 0.996 ± 0.015.

On to GTTTATAGAG, for which the switch fluorescence ratio came out at 1.01 ± 0.039. To GTTTATGTAG belongs 1.01 ± 0.0096. On to GTTTATGTGA, for which the switch fluorescence ratio amounted to 1.03 ± 0.057.

As for GTTTATTACT, the switch fluorescence ratio is 1.01 ± 0.021. The figure for GTTTATTCCT is 1.02 ± 0.044; for GTTTCAGGT it is 0.991 ± 0.027. To GTTTCAGGTT belongs 2.12 ± 1.6; to GTTTCATATC, 1.02 ± 0.047; to GTTTCATGAA, 1.01 ± 0.018. To GTTTCGAGCG belongs 1.03 ± 0.013.

As to GTTTCGCGA, the switch fluorescence ratio came to 1.14 ± 0.041. Regarding GTTTCGGGTG, the switch fluorescence ratio came to 1.64 ± 0.84.

In the case of GTTTCGGTTT, the switch fluorescence ratio amounted to 1.1 ± 0.096.

On to GTTTGAATTT, for which the switch fluorescence ratio was determined as 0.989 ± 0.027. To GTTTGAGGAG belongs 0.986 ± 0.05. The figure for GTTTGAGGCG is 1 ± 0.012. As for GTTTGAGGTG, the switch fluorescence ratio came out at 1 ± 0.044.

GTTTGATATA: the switch fluorescence ratio stood at 1.01 ± 0.011.

Regarding GTTTGCAAGA, the switch fluorescence ratio came out at 1.01 ± 0.028. To GTTTGCGGGC belongs 0.947 ± 0.0066; to GTTTGGCATG, 1.003 ± 0.0051. To GTTTGGCCGG belongs 0.998 ± 0.03; to GTTTGGCCTT, 1.04 ± 0.012. The figure for GTTTGGGATG is 0.9738 ± 0.0065; for GTTTGGGCTT it is 1.05 ± 0.063; for GTTTGGGGTG it is 0.999 ± 0.043. For GTTTGGTGAG, the switch fluorescence ratio came out at 1.01 ± 0.021.

Turning to GTTTGTACAC, the switch fluorescence ratio was found to be 0.986 ± 0.054.

Consider GTTTGTCAGG, for which the switch fluorescence ratio is 0.99 ± 0.04. To GTTTGTGGAC belongs 0.997 ± 0.035; to GTTTGTGGGC, 1.01 ± 0.077. The figure for GTTTGTGGGG is 0.991 ± 0.021.

Take GTTTGTTAGG: the switch fluorescence ratio came to 1.012 ± 0.0095.

Regarding GTTTGTTGGC, the switch fluorescence ratio came to 0.967 ± 0.056. In the case of GTTTTACCTG, the switch fluorescence ratio stood at 1 ± 0.03. To GTTTTAGGCG belongs 0.986 ± 0.028; to GTTTTAGGGG, 1.01 ± 0.052. To GTTTTATGG belongs 0.982 ± 0.019; to GTTTTATGGT, 0.968 ± 0.0075. To GTTTTATTGC belongs 0.975 ± 0.04; to GTTTTCACAG, 0.992 ± 0.033; to GTTTTCAGCG, 1.01 ± 0.022. For GTTTTCGGTA, the switch fluorescence ratio was found to be 0.9802 ± 8.4e-05.
